Experimental findings from paper PMC9525906 (The Journal of Biological Chemistry, 2022) are described below.

A word on the Km: it is the concentration of substrate that gives half-maximal velocity. What is called Vmax is the rate approached at saturating substrate. By kcat is commonly meant the maximal rate divided by the concentration of active sites. By stoichiometry N is commonly meant a count of units in the complex or per binding partner.

Substrate in the series “purified protein”: NC(=O)c1ncn([C@@H]2O[C@H](COP(=O)(O)O)[C@@H](O)[C@H]2O)c1NC=O
Kind of series: purified protein. It is filed as biochemical, Cryptococcus neoformans. The note with it: IMP cyclohydrolase activity, 100 mM Tris-Cl pH 7.5, 37 °C.

The series “SEC-MALS” concerns the molecule itself. Description: SEC-MALS. Background: Size exclusion chromatography separates by hydrodynamic size, large species first.

B1: Cryptococcus neoformans AICAR transformylase/IMP cyclohydrolase (ATIC) (enzyme, UniProt J9VJP1 1-605, looked up)
chain: MSSEAPIALLSVYDKTGLLPFAKSLKELGFRLLGSGGTAKMIREAGMEIEDVSNITKAPEMLGGRVKTLHPAVHGGILSRDIPSDLADLATNKISPITLVVCNLYPFVLQTAKPDCTLAGAIEEIDIGGVTLLRAAAKNHGRVSIISSPSDYETIVAELRAKGEVSAETRRGLAIKAFEDTKSYDEAISDYFRKVYATPGVEEEMKAGAGVGYQRLGLRYGANPHQKPAQAFVEQGEMPIKVLSGSPGYINLLDALNSWALVKELAAGLDLPAAASFKHVSPAGAAVGLPLDERAAKVFGVEDLKELSPLACAYARARGADRMSSFGDFIALSHTVDTPTAKIISREVSDGVIAPGYEPEALEILSKKKGGKYCVLQMDPTYVPPEIETRQVYGISLQQKRNDCKIDESLFKNVVTANKDLPKSAVTDLVVATLALKYTQSNSVCYALNGTVIGLGAGQQSRIHCTRLAGDKADNWWLRHHPRVLELPFKKGTKRADKANAIDLFVTGQAFEAEGGERAQWESLFETVPEPLTKEEREKHMKELTGVACASDAFFPFPDNVHRAKRSGATYLAAPSGSIMDKECIKAADESNLVFCHTDLRLFHH
As to B1, in “purified protein”, the Km came to 30 ± 1 µM, the Vmax came to 8.6 µmol/min/mg and the kcat came to 7.7 ± 0.1 s⁻¹. Besides, the “stoichiometry N” value in the series “SEC-MALS” turned out to be 2.
